Data published in publication PMC8887137.

Test system: NSP12 (RNA-dependent RNA polymerase) (SARS-CoV-2)
Assay: filter binding
Conditions: 20 mM Tris, 200 mM KCl, room temperature, 1 h; pH not stated

“NSP12 eCLIP peak RNA, region 7431-7555 (hairpin)” was tested, and the Kd was 0.017 µM.
